Experiment [1] has as its target squirrel monkey prokineticin receptor 2 (PKR2) (squirrel monkey). Briefly: cell-based or functional assay.
In experiment [2] the target is rhesus monkey prokineticin receptor 1 (PKR1) (rhesus monkey). The experiment can be described thus: cell-based or functional assay.

Regarding “recombinant human PK1 (from UniProt P58294 20-105) (ligand)”, the calcium mobilization (aequorin luminescence) EC50 in experiment [1] came to 0.01 µM. With “recombinant human PK2 (from UniProt Q9HC23 28-129) (ligand)”, in experiment [2], the calcium mobilization (aequorin luminescence) EC50 was 0.01 µM.
